Assay results: patent EP1117807B1

Target: HMW protein antigen of the anti-HMW EIA
Assay: antigen-specific EIA, control chinchilla serum IgG titer on coated antigen, second experiment

**Q.** How did the Anti-HMW antibody titers Log2 (Titers/100) (Log2 (Titers/100)) turn out when “serum of control chinchillas immunized with alum alone (antibody)” was run?
**A.** < 0.05
